T1: OATP4C1 (Homo sapiens, UniProt Q6ZQN7)
T1 construct: gene SLCO4C1
T1 sequence (Q6ZQN7 1-724): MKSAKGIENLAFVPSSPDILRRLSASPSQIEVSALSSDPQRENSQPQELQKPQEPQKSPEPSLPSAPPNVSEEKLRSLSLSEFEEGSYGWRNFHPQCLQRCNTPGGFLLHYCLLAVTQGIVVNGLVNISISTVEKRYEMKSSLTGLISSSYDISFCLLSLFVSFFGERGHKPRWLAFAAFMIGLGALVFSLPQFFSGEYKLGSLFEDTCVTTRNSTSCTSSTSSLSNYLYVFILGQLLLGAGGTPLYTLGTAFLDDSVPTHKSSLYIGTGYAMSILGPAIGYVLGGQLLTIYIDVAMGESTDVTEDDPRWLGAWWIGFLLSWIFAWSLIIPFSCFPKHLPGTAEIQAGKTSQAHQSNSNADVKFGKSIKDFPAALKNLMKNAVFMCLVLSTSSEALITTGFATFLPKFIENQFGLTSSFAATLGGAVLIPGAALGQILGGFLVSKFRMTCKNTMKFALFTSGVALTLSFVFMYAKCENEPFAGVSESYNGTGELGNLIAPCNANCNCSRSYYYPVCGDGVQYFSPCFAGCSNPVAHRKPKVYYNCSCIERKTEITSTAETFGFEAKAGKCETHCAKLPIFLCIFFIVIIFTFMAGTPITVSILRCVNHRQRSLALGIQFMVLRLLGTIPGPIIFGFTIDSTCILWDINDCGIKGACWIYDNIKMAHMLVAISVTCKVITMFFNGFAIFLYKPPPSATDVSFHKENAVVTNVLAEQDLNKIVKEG


Key:
OATP4C1 = biological target: T1, OATP4C1; assay: inhibition of OATP4C1-mediated L-homoarginine ([…]) net uptake in HEK cells; assay type: cell-based
[1] = substrate: N=C(N)NCCCC[C@H](N)C(=O)O; assay: radiolabeled uptake and efflux in HEK-OATP4C1 vs vector control cells (Km); assay type: cell-based, Homo sapiens
[2] = substrate: N=C(N)NCCC[C@H](N)C(=O)O; assay: radiolabeled uptake in HEK-OATP4C1 vs vector control cells (Km); assay type: cell-based, Homo sapiens
[3] = substrate: CN(C)C(=N)NCCC[C@H](N)C(=O)O; assay: radiolabeled uptake and efflux in HEK-OATP4C1 vs vector control cells (Km); also inhibits L-homoarginine uptake; assay type: cell-based, Homo sapiens

Molecule	IC50 (OATP4C1)	Km [1]	Km [2]	Km [3]
CN=C(NC)NCCC[C@H](N)C(=O)O [SDMA]	54 ± 1.3 µM	–	–	–
OATP4C1 (Homo sapiens) (protein) MKSAKGIENLAFVPSSPDILRRLSASPSQIEVSALSSDPQRENSQPQELQKPQEPQKSPEPSLPSAPPNVSEEKLRSLSLSEFEEGSYGWRNFHPQCLQRCNTPGGFLLHYCLLAVTQGIVVNGLVNISISTVEKRYEMKSSLTGLISSSYDISFCLLSLFVSFFGERGHKPRWLAFAAFMIGLGALVFSLPQFFSGEYKLGSLFEDTCVTTRNSTSCTSSTSSLSNYLYVFILGQLLLGAGGTPLYTLGTAFLDDSVPTHKSSLYIGTGYAMSILGPAIGYVLGGQLLTIYIDVAMGESTDVTEDDPRWLGAWWIGFLLSWIFAWSLIIPFSCFPKHLPGTAEIQAGKTSQAHQSNSNADVKFGKSIKDFPAALKNLMKNAVFMCLVLSTSSEALITTGFATFLPKFIENQFGLTSSFAATLGGAVLIPGAALGQILGGFLVSKFRMTCKNTMKFALFTSGVALTLSFVFMYAKCENEPFAGVSESYNGTGELGNLIAPCNANCNCSRSYYYPVCGDGVQYFSPCFAGCSNPVAHRKPKVYYNCSCIERKTEITSTAETFGFEAKAGKCETHCAKLPIFLCIFFIVIIFTFMAGTPITVSILRCVNHRQRSLALGIQFMVLRLLGTIPGPIIFGFTIDSTCILWDINDCGIKGACWIYDNIKMAHMLVAISVTCKVITMFFNGFAIFLYKPPPSATDVSFHKENAVVTNVLAEQDLNKIVKEG	–	49.9 ± 9.6 µM	48.1 ± 5.7 µM	232.1 ± 78.9 µM

From PMC6415861, “The renal transport protein OATP4C1 mediates uptake of the uremic toxin asymmetric dimethylarginine (ADMA) and efflux of cardioprotective L-homoarginine” (PLoS ONE, 2019)
